Experiments:
[1] = molecular target: HLA-DR2b (DRA, DRB1*1501), soluble, thrombin-cleaved DR/CLIP complex (human)
[2] = molecular target: HLA-DR1 (DRA, DRB1*0101), soluble, thrombin-cleaved DR/CLIP complex (human)

Work on HIV p24 (1-22) peptide yielded an IC50 [1] of 8 µM.

HIV p24 (51-72) peptide showed an IC50 [1] of 10.8 µM.

Substance HIV p24 (111-132) peptide has an IC50 [1] of 10.8 µM.

HIV p24 (161-182) peptide was tested, and the IC50 [1] was 9 µM.

HIV p24 (171-192) peptide showed an IC50 [1] of 0.9 µM.

HIV p24 (191-212) peptide showed an IC50 [1] of 3 µM and an IC50 [2] of 1.6 µM.

Reference: US20040197862A1
